Key:
[1] = molecular target: 重组产生的C末端截短的RSV(A2毒株)F蛋白 (RSV(A2毒株)) (UniProt P03420)
[2] = molecular target: 重组产生的C末端截短的RSV(A2毒株)F蛋白 (RSV(A2毒株)) (UniProt P03420); assay: SPR (BIAcore 3000); truncated F protein on CM5 chip at low density; off-rate at the instrument's detection limit, so an estimate

Chain of UniProt P03420 (P03420 26-524): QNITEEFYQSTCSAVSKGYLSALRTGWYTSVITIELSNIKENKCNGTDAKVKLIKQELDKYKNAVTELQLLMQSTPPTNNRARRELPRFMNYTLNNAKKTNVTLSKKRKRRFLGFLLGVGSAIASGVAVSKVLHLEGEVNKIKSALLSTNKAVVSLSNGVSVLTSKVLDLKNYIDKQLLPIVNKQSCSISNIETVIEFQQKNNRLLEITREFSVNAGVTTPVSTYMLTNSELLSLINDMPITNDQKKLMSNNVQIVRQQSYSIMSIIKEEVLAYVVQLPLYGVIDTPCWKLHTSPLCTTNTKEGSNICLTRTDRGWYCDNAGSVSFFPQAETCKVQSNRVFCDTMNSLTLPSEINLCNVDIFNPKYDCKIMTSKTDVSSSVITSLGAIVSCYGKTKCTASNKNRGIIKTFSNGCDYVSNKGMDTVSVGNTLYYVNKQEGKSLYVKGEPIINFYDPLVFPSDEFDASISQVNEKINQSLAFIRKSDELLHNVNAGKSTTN

## A4B4L1FR-S28R(莫维珠单抗) (antibody)
[1]
  fold higher affinity than palivizumab: 70 fold
  fold higher association rate (kon) than palivizumab: 4 fold
[2]
  fold lower dissociation rate (koff) than palivizumab: 17 fold
